Assay results as given in publication PMC8494293, “Relief of ParB autoinhibition by parS DNA catalysis and recycling of ParB by CTP hydrolysis promote bacterial centromere assembly” (Science Advances, 2021).
Residue numbers refer to the chain shown, from its start. Names may count otherwise.

Columns and labels:
ParB(E78Q) [1] = molecular target: T1, ParB(E78Q) (Bacillus subtilis, UniProt P26497, E78Q); experiment: ITC; also N-gate cross-linking and BLI DNA loading; no appreciable hydrolysis; format: binding
T1 construct: gene spo0J; full-length, untagged
T1 sequence (P26497 1-282 E78Q): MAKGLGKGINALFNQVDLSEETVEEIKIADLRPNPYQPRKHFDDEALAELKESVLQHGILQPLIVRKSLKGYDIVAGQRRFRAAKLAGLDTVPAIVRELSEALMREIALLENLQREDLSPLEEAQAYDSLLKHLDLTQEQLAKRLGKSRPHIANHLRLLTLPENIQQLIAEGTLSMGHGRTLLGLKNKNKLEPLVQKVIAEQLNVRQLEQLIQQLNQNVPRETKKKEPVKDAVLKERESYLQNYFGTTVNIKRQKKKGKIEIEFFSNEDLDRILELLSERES

ParB(E111Q) [2] = molecular target: T2, ParB(E111Q) (Bacillus subtilis, UniProt P26497, E111Q); experiment: as above; format: binding
T2 construct: gene spo0J; full-length, untagged
T2 sequence (P26497 1-282 E111Q): T1 sequence (P26497 1-282 E78Q) with Q78E, E111Q

ParB [3] = molecular target: T3, ParB (Bacillus subtilis, UniProt P26497); experiment: ITC; also CTP hydrolysis (malachite green), N-gate cross-linking and BLI DNA loading; format: binding
T3 construct: gene spo0J; full-length, untagged
T3 sequence (P26497 1-282): T1 sequence (P26497 1-282 E78Q) with Q78E

ParB(E111Q) [4] = molecular target: T2, ParB(E111Q); experiment: N-gate closure by BMOE cross-linking (T22C); BLI DNA loading; format: biochemical
ParB(E78Q) [5] = molecular target: T1, ParB(E78Q); experiment: as above; format: biochemical
ParB [6] = molecular target: T3, ParB; experiment: BLI of ParB loading on and dissociation from parS DNA with nucleotide; N-gate cross-linking; format: biochemical
[7] = molecular target: T4, ParB(T22C, E78Q)-HT, P26497; experiment: in vivo BMOE cysteine cross-linking (SDS-PAGE, HaloTag TMR in-gel fluorescence, band quantification); settings: chain shown with the change, read off a plot
T4 chain: T1 sequence (P26497 1-282 E78Q) with T22C

[8] = molecular target: the molecule itself; experiment: cross-linking; in vitro BMOE (1 mM) cysteine cross-linking, 10 uM ParB, with or without 1 mM CTP or CTPγS and 1 uM 40-bp parS DNA, 150 mM NaCl, 50 mM tris-HCl pH 7.5, 5 mM MgCl2, room temperature; SDS-PAGE, Coomassie
[9] = molecular target: T5, ParB(R105C, H133C, E78Q)-HT, P26497; experiment: in vivo BMOE cysteine cross-linking (SDS-PAGE, HaloTag TMR in-gel fluorescence, band quantification); settings: chain shown with the change, Inter XL plus Inter 2XL species, read off a plot
T5 chain: T1 sequence (P26497 1-282 E78Q) with R105C, H133C

[10] = molecular target: T6, ParB(R105C, H133C, E111Q)-HT, P26497; experiment: as above; settings: chain shown with the change, Inter XL plus Inter 2XL species, read off a plot
T6 chain: T1 sequence (P26497 1-282 E78Q) with Q78E, R105C, E111Q, H133C

[11] = molecular target: T7, ParB(T22C, E111Q)-HT, P26497; experiment: as above; settings: chain shown with the change, read off a plot
T7 chain: T1 sequence (P26497 1-282 E78Q) with T22C, Q78E, E111Q

[12] = parS: Δ8 (strain lacking the 8 parS sites)

For `Nc1ccn([C@@H]2O[C@H](COP(=O)(O)OP(=O)(O)OP(=O)(O)O)[C@@H](O)[C@H]2O)c(=O)n1` [CTP], the Kd (ParB(E78Q) [1]) was 5 to 8 µM, the Kd (ParB(E111Q) [2]) was 5 to 8 µM and the Kd (ParB [3]) was 5 to 8 µM.

For `Nc1ccn([C@@H]2O[C@H](COP(=O)(O)OP(=O)(O)OP(O)(O)=S)[C@@H](O)[C@H]2O)c(=O)n1` [CTPγS], the “N-gate closure by BMOE cross-linking (T22C); BLI DNA loading” value (ParB(E111Q) [4]) was “we found that the EQ mutants supported N-gate closure equally well with CTP and CTPγS”, the “N-gate closure by BMOE cross-linking (T22C); BLI DNA loading” value (ParB(E78Q) [5]) was “we found that the EQ mutants supported N-gate closure equally well with CTP and CTPγS” and the “BLI of ParB loading on and dissociation from parS DNA with nucleotide; N-gate cr” value (ParB [6]) was “differences in the dissociation rates between wild-type and EQ proteins were eliminated when CTPγS was used instead of CTP”.

B1: ParB(T22C, E78Q) (natural protein, B. subtilis, UniProt P26497 1-282, looked up)
chain: T1 sequence (P26497 1-282 E78Q) with T22C
notes: ParB, B. subtilis, untagged recombinant protein, CTP hydrolysis-defective mutant with the T22C reporter cysteine; source: E. coli BL21-Gold (DE3), purified (ammonium sulfate, heparin, HiTrap SP, Superdex 200)
B1 showed an other: fraction of cross-linked dimers ([7]; N-N XL species) of 0.57, an other: fraction of cross-linked species ([7]; parS: All) of 0.72 and an other: fraction of cross-linked species [7, 12] of 0.52. B1: binds [8].

B2: ParB-HT (wt) R105C; H133C; E78Q (protein)
chain: T1 sequence (P26497 1-282 E78Q) with R105C, H133C
Work on B2 yielded an other: fraction of cross-linked dimers [9] of 0.77.

B3: ParB-HT (wt) R105C; H133C; E111Q (protein)
chain: T1 sequence (P26497 1-282 E78Q) with Q78E, R105C, E111Q, H133C
In the case of B3, the other: fraction of cross-linked dimers [10] is reported as 0.2.

B4: ParB(T22C, E111Q) (natural protein, B. subtilis, UniProt P26497 1-282, looked up)
chain: T1 sequence (P26497 1-282 E78Q) with T22C, Q78E, E111Q
notes: as for B1
With B4 the other: fraction of cross-linked dimers ([11]; N-N XL species) was 0.36, the other: fraction of cross-linked species ([11]; parS: All) was 0.49 and the other: fraction of cross-linked species [11, 12] was 0.45. B4: binds [8].

B5: ParB(R105C, H133C) (natural protein, B. subtilis, UniProt P26497 1-282, looked up)
chain: T1 sequence (P26497 1-282 E78Q) with Q78E, R105C, H133C
notes: ParB, B. subtilis, untagged recombinant protein with cysteines at the N-M interface; source: E. coli BL21-Gold (DE3), purified (ammonium sulfate, heparin, HiTrap SP, Superdex 200)
B5: binds [8].

B6: ParB(A102C, H133C) (natural protein, B. subtilis, UniProt P26497 1-282, looked up)
chain: T1 sequence (P26497 1-282 E78Q) with Q78E, A102C, H133C
notes: as for B5
B6: binds [8].

B7: ParB(T22C) (natural protein, B. subtilis, UniProt P26497 1-282, looked up)
chain: T1 sequence (P26497 1-282 E78Q) with T22C, Q78E
notes: ParB, B. subtilis, untagged recombinant protein with a cysteine at the N-gate; source: E. coli BL21-Gold (DE3), purified (ammonium sulfate, heparin, HiTrap SP, Superdex 200)
B7: binds [8].
